Source: the supplement of paper PMC9170038

System: MS2 coat protein
Assay: apparent KD of MS2 coat protein; designed switch direction (-1 OFF switch, 1 ON switch): -1; higher = weaker reporter binding
Summary of the method: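 Apparent KD, taken as the median over clusters for each design, was obtained by curve-fitting normalised cluster fluorescence. Designed RNA switches had been transcribed on Illumina chips by stalled E. coli RNA polymerase and titrated with SNAP-549-labelled MS2 coat protein, doubling from 0.7 or 1.5 nM to 3 µM.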

[1] = Eterna round: R95, input ligand: FMN 200 uM
[2] = Eterna round: R95, input ligand: microRNA oligo, concentration not stated
[3] = Eterna round: R95, input ligand: none
[4] = input ligand: microRNA oligo, concentration not stated

| Sequence | apparent KD of MS2 coat protein [1] [nM] | apparent KD of MS2 coat protein [2] [nM] | apparent KD of MS2 coat protein [3] [nM] | apparent KD of MS2 coat protein (input ligand: FMN 200 uM) [nM] | apparent KD of MS2 coat protein (input ligand: none) [nM] | apparent KD of MS2 coat protein [4] [nM] |
| --- | --- | --- | --- | --- | --- | --- |
| UUUAAUUUUUUUUUUUUACAAGCUUUUUGCUCGUCUUAUACAUGAGGAUCACCCAUGUGGGUGGAAGAUAAAUUAUC [JMF 12] (puzzle: Sensor v3, turn-off variant 2) | 113 | 75.1 | 134 |  |  |  |
| GAAAAUGUGGAGGAUAUCGACUUCGAAAGAAGUCGAGAAGGCCACACAUGAGGAUCACCCAUGUGUGCCUUAAA [Omei Ex6 H3] (Eterna round: R97, puzzle: Exclusion 6) |  |  |  | 23.9 | 12 |  |
| CUGGAGUCAGGAUAUGACGCAGUCCGCCCAAAUAGCGGAAAUCAGAAGGGACUUGAGGAUCACCCAAGUAAAAG [Qubilexe] (Eterna round: R97, puzzle: Exclusion 4) |  |  |  | 29.7 | 21.8 |  |
| ACAAGCUUUUAGAUUCUUAACAUGAGGAUCACCCAUGUGCUCGUCUUACCGGCCGGCGGGCCGCCGGCCGGGCUUGU (Eterna round: R97, puzzle: Sensor, turn-off variant 1) |  |  |  | 18.5 | 18.5 |  |
| AGUACUAACACGGGUGUGUUAGUACAAUAAGCUUGUGAAACAUGAGGAUCACCCAUGUCCUCAUAAGCUCGUCUUAU [salish99_TOv2_r3_075] (puzzle: Sensor v3, turn-off variant 2) | 15.4 | 926 | 14.4 |  |  |  |
| UUGUAUAUAGGAUAUGUAAGAAGAAACAUGAGGAUCACCCAUGUAGCCUCAAAUUUUAUGACAGAAGGAUAUGUUA [Default title] (Eterna round: R97, puzzle: Exclusion 5) |  |  |  | 36.2 | 56 |  |
| ACAGUGUUAGGAUAUCUGAGAAUUAGUCUCGACUAGUCGAAGGAGAAGGAACAUGAGGAUCACCCAUGUAGAUC [EX4 #76] (Eterna round: R97, puzzle: Exclusion 4) |  |  |  | 295 | 41.6 |  |
| CUCUUGUCAGGAUAUUAUGGACGAUAGCAGGGCUACGUCAGUGAGAAGGGACAUGAGGAUCACCCAUGUAAAAU [Onatbezaes] (puzzle: Exclusion 4) |  | 77.1 |  |  |  |  |
| AAGACCAGAGGAUAUCAGACGCGGCACAUGAGGAUCACCCAUGUAUUCCCGUCUGCCGACUGAGAAGGUUGGAAAG [Xeusbi] (puzzle: Exclusion 5) |  | 9.41 |  |  |  |  |
| AUGUGACAUGAGGAUCACCCAUGUGAGGAUAUCAUGCUUCGUAGUAAACUACGAAGUGUGAGAAGGCACAUAAC [Omei Ex1 E7] (Eterna round: R97, puzzle: Exclusion 1) |  |  |  | 357 | 80.2 |  |
| GGUCGGCGAGGAUAUACAUGAGGAUCACCCAUGUGAUAGAUUGCUUCGUGAGAAGUAUGUAGAAGGCGCUGACG [jl-ex3-4.04 jl mod] (Eterna round: R97, puzzle: Exclusion 3) |  |  |  | 320 | 38.7 |  |
| AUUGGGCAAGCAUGAUCCCACAUGAGGAUCACCCAUGUGUUCGUCUUAUAGGCUGCUGAGGCUUUUGCCUCGGUGGC [LRO Sensor-off var1-02 loose mod of D91 from Mat747] (Eterna round: R97, puzzle: Sensor, turn-off variant 1) |  |  |  | 706 | 875 |  |
| UGUCAGAUGGUAGGAUAUCCAUAUCGAGUGACCCUUUCAUAACAUGAGGAUCACCCAUGUCGGUGGGAGAAGGGCCGUACGGUG [salish99_ExNG02_R04_024] (Eterna round: R96, puzzle: Exclusion NG 2) |  |  |  | 27.1 | 36.2 | 29.6 |
| ACCAAUGCAGGAUAUACAUGAGGAUCACCCAUGUAUAACCUACAUAGAUGAUCAUCAUGUAGAAGGGCAAUGGA [EX3 229: Super Stable 29] (Eterna round: R96, puzzle: Exclusion 3) |  |  |  | 12.2 | 14.6 | 11.1 |
| GAAAAUGUGGAGGAUAUCGACUUCGAAAGAAGUCGAGAAGGCCACACAUGAGGAUCACCCAUGUGAUGCCAAUA [Omei Ex6 H9] (Eterna round: R97, puzzle: Exclusion 6) |  |  |  | 443 | 284 |  |
| GAUGUGGGUUUUCAGAGUAACAUGAGGAUCACCCAUGUAGAAGUUGAAGGUAUCAAGCGAAUGGCUCGUCAUAUGUG [JR_SV3TOV1_Sub050] (puzzle: Sensor v3, turn-off variant 1) | 161 | 239 | 322 |  |  |  |
| UUCAUGUGAGGAUAUGUGCAAGACCUAGAGAUUGGGUUUUCACAGAAGGCACAUGAGGAUCACCCAUGUGUUAC [Eternabot (L2) Solution 23] (Eterna round: R97, puzzle: Exclusion 4) |  |  |  | 232 | 126 |  |
| UAAAUUGCAAGCAGAUCCUACAUGAGGAUCACCCAUGUGCUCUGAAAUAACGCAGAAUUACUGCGAGCUCGUCUUAU [Winner reversed engineered 26] (Eterna round: R97, puzzle: Sensor, turn-off variant 1) |  |  |  | 80.9 | 94.3 |  |
| ACAUGAGGAUCACCCAUGUGACCACGAUGGCUGAUGUAAAGACAGGAUAUGUGUGAAUAUCUAUCACAGAAGGGUCUUGACUGG [Deportation 55 - Jieux - Exclusion NG 3] (Eterna round: R96, puzzle: Exclusion NG 3) |  |  |  | 24.1 | 30.6 | 22 |
| ACAUGAGGAUCACCCAUGUACAGGGUUUAGUUUCAUCGUUUGAAGGAUAUACUCCGUUAGUUGUUGUAGAAGGUCACAUUUUGG [JR_ExcNG3_Sub005] (Eterna round: R96, puzzle: Exclusion NG 3) |  |  |  | 167 | 142 | 89.2 |
| AGCUUUUUGCUCGUCUUAUACAUGAGGAUCACCCAUGUAUUGGACCACAUCGAUAGAUGUGGGCCAAGAAGCAUGGG [Omdei Mir OFFv1 C2] (Eterna round: R97, puzzle: Sensor, turn-off variant 1) |  |  |  | 133 | 176 |  |
| CAAGCUUUGCGAGGAUAUGAUGGCCUAUAUGCCUCAGAAGGCGCAGAUACUUGAGGAUCACCCAAGUGAUGCAAAUACGAAAAU [Mutated MS2 EX1.17] (Eterna round: R96, puzzle: Exclusion NG 1) |  |  |  | 71.3 | 20 | 17.4 |
| GUAAAGUGAGGAUAUGGUAAUUUAAUUAUUAAUUAAUUAAUCCAGAAGGCACAUGAGGAUCACCCAUGUAAAGG [Mat - Exclusion 4 - D93] (puzzle: Exclusion 4) |  | 34.6 |  |  |  |  |
| GCUGGGUCAGGAUAUACAGGGUCGAAAGAUCUGUGAUACCUACAUGAGGAUCACCCAUGUAGAAGGGACUGGGC [ChP 11-04-2015 #10] (Eterna round: R96, puzzle: Exclusion 2) |  |  |  | 43.9 | 18.9 | 14 |
| AUAAUGUCAGGAUAUCAGACGUACAGCUUCGGCUGUACGUCUGAGAAGGGACAUGAGGAUCACCCAUGUGAUUA [E4/3-A1] (Eterna round: R97, puzzle: Exclusion 4) |  |  |  | 224 | 940 |  |
